The target of data set [1] is T1, AtBioZ (FabH2, beta-ketoacyl-ACP synthase III) (Agrobacterium fabrum, UniProt Q7CTU0, C115A).
T1 construct: gene bioZ; purified BioZ(C115A)
Put plainly: ITC (MicroCal PEAQ-ITC, […] °C), N = […]. The class given is binding.

Data set [2] concerns the molecule itself. Put plainly: SEC; gel filtration of purified AtBioZ on Superdex 200 Increase 10/300; GF buffer (25 mM Tris-HCl pH 8.0, 100 mM NaCl, 2 mM DTT). On the technique in general: SEC sorts molecules by how far they enter the pores of the column.
Data set [3] addresses BioZ(C115A) mutant enzyme of Agrobacterium tumefaciens (Agrobacterium tumefaciens), A0AA44. Kind of data set: ITC; MicroCal PEAQ-ITC, 25 °C; 50 μM BioZ(C115A) in the cell, 750 μM substrate in the syringe; 20 mM Tris pH 8.0, 150 mM NaCl; one binding-site model; three independent measurements. Conditions: remark: other sources report otherwise. For orientation: In ITC the heat of successive injections is recorded.

Take `CC(C)(COP(=O)(O)OP(=O)(O)OC[C@H]1O[C@@H](n2cnc3c(N)ncnc32)[C@H](O)[C@@H]1OP(=O)(O)O)[C@@H](O)C(=O)NCCC(=O)NCCSC(=O)CCCC(=O)O` [glutaryl-CoA]: in data set [1], the Kd is 2.64 ± 0.23 µM.

B1: Agrobacterium tumefaciens BioZ (enzyme, UniProt A0AA44F6N6 1-328, looked up)
chain: MQTRSSRMAGFGHAVPARCVRNAEIETRLGLEAGWIERRTGIRTRYWAQEGETLSGLAEKAGRMALENARIGAEDIALTLLATSTPDHLLPPSAPLLAHRLGLTQSGAIDLAGACSGFLYALTLADGFVRTHGRAVLVVAANILSRRINPAERATAVLFADAAGAVVLVPCRDAQRGLLSADLVSDGSGYDLIQIAAGGSSQPFSNDTEAEDTLMTMRDGREVFSRAVATMTQTSQRALQRAEMTATDIQRFLPHQANARMFDAVCGNIGIDRQKTVRTVETFGNSSAATIPLSLSVSNAERPITEGETLLLTAAGAGMTGGAVVYRG
notes: BioZ (FabH2), atypical beta-ketoacyl-ACP synthase III of Agrobacterium tumefaciens; bioZ gene cloned into pET28a; apparent mass ~36 kDa; 654 protein residues in the two protomers of PDB 6KUE; also called AtBioZ; FabH2; source: E. coli BL21 with pET28::atbioZ, purified (Ni-NTA, TEV cleavage, Superdex 200 Increase SEC); not shown: His6, N-terminal, cleaved
In the case of B1, the “stoichiometry N” value in data set [2] came to 2.

B2: glutaryl-ACP, P0A6A8 1-78 (natural protein)
chain: MSTIEERVKKIIGEQLGVKQEEVTNNASFVEDLGADSLDTVELVMALEEEFDTEIPDEEAEKITTVQAAIDYINGHQA
modifications: here or on the partner: glutaryl thioester on the phosphopantetheine (Ppan) of Serine 36
In data set [3], B2 returned a Kd of 6.17 µM and a stoichiometry N of 0.978.

B3: E. coli holo-ACP, P0A6A8 1-78 (natural protein)
chain: MSTIEERVKKIIGEQLGVKQEEVTNNASFVEDLGADSLDTVELVMALEEEFDTEIPDEEAEKITTVQAAIDYINGHQA
modifications: here or on the partner: phosphopantetheine (Ppan) on Serine 36 (holo-ACP)
In data set [3], B3 had a Kd of 330 µM and a stoichiometry N of 1.

B4: malonyl-ACP, P0A6A8 1-78 (natural protein)
chain: MSTIEERVKKIIGEQLGVKQEEVTNNASFVEDLGADSLDTVELVMALEEEFDTEIPDEEAEKITTVQAAIDYINGHQA
modifications: here or on the partner: malonyl thioester on the phosphopantetheine (Ppan) of Serine 36
In data set [3], B4 yielded a Kd of 24.1 µM and a stoichiometry N of 0.996.

Usually Kd stands for the constant that tells how readily two partners part at equilibrium. Low values mean a tighter complex, high ones a looser complex. As a reminder, the stoichiometry N is the number of molecules, sites or subunits per partner or assembly.

The values are drawn from paper PMC8024396, “Biochemical and structural characterization of the BioZ enzyme engaged in bacterial biotin synthesis pathway” (Nature Communications, 2021).
